Laboratory results reported in publication PMC11850643 (Nature Communications, 2025).

Biological target: the molecule itself
Experiment: SEC

B1: full-length MmpL4 (M. tuberculosis) (natural protein)
chain: MSTKFANDSNTNARPEKPFIARMIHAFAVPIILGWLAVCVVVTVFVPSLEAVGQERSVSLSPKDAPSFEAMGRIGMVFKEGDSDSFAMVIIEGNQPLGDAAHKYYDGLVAQLRADKKHVQSVQDLWGDPLTAAGVQSNDGKAAYVQLSLAGNQGTPLANESVEAVRSIVESTPAPPGIKAYVTGPSALAADMHHSGDRSMARITMVTVAVIFIMLLLVYRSIITVVLLLITVGVELTAARGVVAVLGHSGAIGLTTFAVSLLTSLAIAAGTDYGIFIIGRYQEARQAGEDKEAAYYTMYRGTAHVILGSGLTIAGATFCLSFARMPYFQTLGIPCAVGMLVAVAVALTLGPAVLHVGSRFGLFDPKRLLKVRGWRRVGTVVVRWPLPVLVATCAIALVGLLALPGYKTSYNDRDYLPDFIPANQGYAAADRHFSQARMKPEILMIESDHDMRNPADFLVLDKLAKGIFRVPGISRVQAITRPEGTTMDHTSIPFQISMQNAGQLQTIKYQRDRANDMLKQADEMATTIAVLTRMHSLMAEMASTTHRMVGDTEEMKEITEELRDHVADFDDFWRPIRSYFYWEKHCYGIPICWSFRSIFDALDGIDKLSEQIGVLLGDLREMDRLMPQMVAQIPPQIEAMENMRTMILTMHSTMTGIFDQMLEMSDNATAMGKAFDAAKNDDSFYLPPEVFKNKDFQRAMKSFLSSDGHAARFIILHRGDPQSPEGIKSIDAIRTAAEESLKGTPLEDAKIYLAGTAAVFHDISEGAQWDLLIAAISSLCLIFIIMLIITRAFIAAAVIVGTVALSLGASFGLSVLLWQHILAIHLHWLVLAMSVIVLLAVGSDYNLLLVSRFKQEIGAGLKTGIIRSMGGTGKVVTNAGLVFAVTMASMAVSDLRVIGQVGTTIGLGLLFDTLIVRSFMTPSIAALLGRWFWWPLRVRSRPARTPTVPSETQPAGRPLAMSSDRLG
binding result: binds
